Source: patent EP4748847A1, “PEPTIDE COMPLEX HAVING VEGFR -2 AGONIST ACTIVITY” (Peptidream Inc, priority 2023, dated 2025)
Where two headings read alike, the source gives them in different places. Blank lines part the entries; values can stand above or below the binder they belong to. *1 amine or outer side, *2 acyl side, *3 side chain or, on linkers, in order; H or OH if unused. Bridges are numbered along the chain shown (N, C = ends). Primed or numbered codes have the meaning given here. Where no end group is shown, it is not given here. [ ]: non-standard residue; d: D form. CO(CH2)2(OCH2CH2)17CO = O=C(CCOCCOCCOCCOCCOCCOCCOCCOCCOCCOCCOCCOCCOCCOCCOCCOCCOCCC(=O)[*:2])[*:1]; Met(O2) = CS(=O)(=O)CC[C@H](N)C(=O)O; hTyr = N[C@@H](CCc1ccc(O)cc1)C(=O)O; Hyp = O=C(O)[C@@H]1C[C@@H](O)CN1; hArg = N=C(N)NCCCC[C@H](N)C(=O)O; hPhe = N[C@@H](CCc1ccccc1)C(=O)O; Chg = N[C@H](C(=O)O)C1CCCCC1; Tle = CC(C)(C)[C@H](N)C(=O)O; F4aao = not defined here; Ahp′ = not defined here; H4Py = not defined here; Atb = not defined here; F4C = not defined here; Yph = not defined here

Experiments:
VEGFR-2 [1] = target: T1, VEGFR-2 (human, UniProt P35968 20-1356); assay: cell-based or functional assay
VEGFR-2 [2] = target: T1, VEGFR-2; assay: cell-based or functional assay; remark: listed apart in the source

T1 sequence (P35968 20-1356): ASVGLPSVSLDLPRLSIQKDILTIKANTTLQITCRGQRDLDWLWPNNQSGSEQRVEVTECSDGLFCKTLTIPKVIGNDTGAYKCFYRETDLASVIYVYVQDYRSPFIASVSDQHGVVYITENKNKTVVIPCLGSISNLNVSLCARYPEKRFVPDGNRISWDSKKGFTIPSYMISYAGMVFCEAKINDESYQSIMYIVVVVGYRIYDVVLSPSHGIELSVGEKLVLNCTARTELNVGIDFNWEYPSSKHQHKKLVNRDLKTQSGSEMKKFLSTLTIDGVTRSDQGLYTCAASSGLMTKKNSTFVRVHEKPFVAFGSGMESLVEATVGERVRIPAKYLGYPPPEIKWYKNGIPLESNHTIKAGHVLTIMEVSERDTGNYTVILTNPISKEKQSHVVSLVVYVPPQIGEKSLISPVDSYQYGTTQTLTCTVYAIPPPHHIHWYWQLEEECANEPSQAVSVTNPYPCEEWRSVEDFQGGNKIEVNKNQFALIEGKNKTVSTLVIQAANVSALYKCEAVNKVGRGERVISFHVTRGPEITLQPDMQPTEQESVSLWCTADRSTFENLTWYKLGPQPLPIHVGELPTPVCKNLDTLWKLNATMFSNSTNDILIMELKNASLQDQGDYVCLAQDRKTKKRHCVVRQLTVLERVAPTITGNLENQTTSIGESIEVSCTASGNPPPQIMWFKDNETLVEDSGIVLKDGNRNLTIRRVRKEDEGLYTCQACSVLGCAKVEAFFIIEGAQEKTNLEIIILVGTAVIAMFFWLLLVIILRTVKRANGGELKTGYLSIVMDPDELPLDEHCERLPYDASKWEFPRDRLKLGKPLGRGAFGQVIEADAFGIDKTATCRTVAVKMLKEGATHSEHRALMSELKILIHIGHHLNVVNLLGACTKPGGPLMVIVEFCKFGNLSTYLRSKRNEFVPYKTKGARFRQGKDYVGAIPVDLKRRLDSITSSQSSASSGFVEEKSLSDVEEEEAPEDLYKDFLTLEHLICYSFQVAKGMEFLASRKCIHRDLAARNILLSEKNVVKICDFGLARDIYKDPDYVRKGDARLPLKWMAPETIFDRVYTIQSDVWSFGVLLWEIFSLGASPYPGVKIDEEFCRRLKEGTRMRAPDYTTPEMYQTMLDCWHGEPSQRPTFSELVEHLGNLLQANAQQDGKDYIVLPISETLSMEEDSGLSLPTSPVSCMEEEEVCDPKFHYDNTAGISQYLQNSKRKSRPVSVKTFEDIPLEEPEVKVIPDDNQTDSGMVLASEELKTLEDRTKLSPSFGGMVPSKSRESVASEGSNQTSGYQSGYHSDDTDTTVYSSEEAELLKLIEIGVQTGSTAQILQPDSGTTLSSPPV

B7: Peptide complex Dimer Structure No. 15 (peptide)
peptide: {CH2CO}-WWVD[Tle]KDDLYFVDCG-NH2
modifications: thioether N-14; not fully specified (residue 6); also: homodimer: Lys6 joined to Lys6 of second copy by cPEG17c (Linker Structure No. 4)
pERK Assay Results (AlphaLISA p-Erk1/2, HUVEC) (VEGFR-2 [2]): ≥ 50 % activity at 100 nM

B9: Peptide complex Dimer Structure No. 26 (peptide)
peptide: {CH2CO}-WW[Tle]QVKDDLYF[hTyr]DCG-NH2
modifications: thioether N-14; not fully specified (residue 6); also: homodimer: Lys6 joined to Lys6 of second copy by cPEG17c (Linker Structure No. 4)
pERK Assay Results (AlphaLISA p-Erk1/2, HUVEC) (VEGFR-2 [1]): ≥ 50 % activity at 100 nM

B10: Peptide complex Dimer Structure No. 10 (peptide)
peptide: {CH2CO}-WWVDVQDDLYFVACG
modifications: thioether N-14; also: dimer: Gly15 C-terminus joined to second copy by PEG12c-K-PEG12c
pERK Assay Results (AlphaLISA p-Erk1/2, HUVEC) (VEGFR-2 [2]): < 50 % activity at 100 nM

B11: Peptide complex Dimer Structure No. 28 (peptide)
peptide: {CH2CO}-WW[Tle]D[Chg]KDDLYF[hTyr]DCG-NH2
modifications: thioether N-14; not fully specified (residue 6); also: homodimer: Lys6 joined to Lys6 of second copy by cPEG17c (Linker Structure No. 4)
pERK Assay Results (AlphaLISA p-Erk1/2, HUVEC) (VEGFR-2 [1]): ≥ 50 % activity at 10 nM

B14: Peptide complex Dimer Structure No. 6 (peptide)
peptide: {CH2CO}-WWVDV[F4COO]DDLYFVDCG
modifications: thioether N-14; also: dimer: C-termini joined by PEG12c-K-PEG12c linker
pERK Assay Results (AlphaLISA p-Erk1/2, HUVEC) (VEGFR-2 [2]): ≥ 50 % activity at 100 nM

B15: Peptide complex Dimer Structure No. 9 (peptide)
peptide: {CH2CO}-WWVDVQDDLYF[hPhe]DCG
modifications: thioether N-14; also: dimer: C-termini joined by PEG12c-K-PEG12c linker
pERK Assay Results (AlphaLISA p-Erk1/2, HUVEC) (VEGFR-2 [2]): < 50 % activity at 100 nM

B16: Peptide complex Dimer Structure No. 11 (peptide)
peptide: {CH2CO}-WWVDVQDDLYFVSCG
modifications: thioether N-14; also: dimer: Gly15 C-terminus joined to second copy by PEG12c-K-PEG12c
pERK Assay Results (AlphaLISA p-Erk1/2, HUVEC) (VEGFR-2 [2]): < 50 % activity at 100 nM

B18: Peptide complex Dimer Structure No. 3 (peptide)
peptide: {CH2CO}-WWVDVWDDLYFVDCG
modifications: thioether N-14; also: dimer joined at Gly15 C-termini by PEG12c-K-PEG12c
pERK Assay Results (AlphaLISA p-Erk1/2, HUVEC) (VEGFR-2 [2]): ≥ 50 % activity at 10 nM

B19: Peptide complex Dimer Structure No. 7 (peptide)
peptide: {CH2CO}-WWVDVQGDLYFVDCG
modifications: thioether N-14; also: dimer: C-termini joined by PEG12c-K-PEG12c linker
pERK Assay Results (AlphaLISA p-Erk1/2, HUVEC) (VEGFR-2 [2]): ≥ 50 % activity at 100 nM

B23: Peptide complex Dimer Structure No. 8 (peptide)
peptide: {CH2CO}-WWVDVQDDLY[Bph]VDCG
modifications: thioether N-14; also: dimer: C-termini joined by PEG12c-K-PEG12c linker
pERK Assay Results (AlphaLISA p-Erk1/2, HUVEC) (VEGFR-2 [2]): < 50 % activity at 100 nM

B27: Peptide complex Dimer Structure No. 4 (peptide)
peptide: {CH2CO}-WWVDV[hPhe]DDLYFVDCG
modifications: thioether N-14; also: dimer: C-terminus joined to second copy by PEG12c-K-PEG12c
pERK Assay Results (AlphaLISA p-Erk1/2, HUVEC) (VEGFR-2 [2]): ≥ 50 % activity at 10 nM

B28: Peptide complex Dimer Structure No. 12 (peptide)
peptide: {CH2CO}-WWVDVQDDLYFVDCG
modifications: thioether N-14; also: dimer: Gly15 C-terminus joined to second copy by K-cPEG17c-K
pERK Assay Results (AlphaLISA p-Erk1/2, HUVEC) (VEGFR-2 [2]): < 50 % activity at 100 nM

Second part, the binder after the results:

pERK Assay Results (AlphaLISA p-Erk1/2, HUVEC) (VEGFR-2 [1]): ≥ 50 % activity at 5 nM
B1: Peptide complex Dimer Structure No. 54 (peptide)
peptide: {CH2CO}-WW[Tle]DVKDD[Atb]Y[F4G][hTyr][Hyp]CG-NH2
modifications: thioether N-14; reading uncertain; also: dimer: Lys6 joined to Lys6 of second copy by OCOPEG13OCO (Linker Structure No. 5)

pERK Assay Results (AlphaLISA p-Erk1/2, HUVEC) (VEGFR-2 [1]): ≥ 50 % activity at 100 nM
B2: Peptide complex Dimer Structure No. 38 (peptide)
peptide: {CH2CO}-WWV[Met(O2)]VKDDLYF[hTyr]DCG-NH2
modifications: thioether N-14; also: homodimer: Lys6 joined to Lys6 of second copy by OCOPEG13OCO (Linker Structure No. 5)

pERK Assay Results (AlphaLISA p-Erk1/2, HUVEC) (VEGFR-2 [1]): ≥ 50 % activity at 10 nM
B3: Peptide complex Dimer Structure No. 35 (peptide)
peptide: {CH2CO}-WW[Tle]DVKDDLYF[hTyr][F4aao]CG-NH2
modifications: thioether N-14; reading uncertain; also: homodimer: Lys6 joined to Lys6 of second copy by cPEG17c (Linker Structure No. 4)

pERK Assay Results (AlphaLISA p-Erk1/2, HUVEC) (VEGFR-2 [1]): ≥ 50 % activity at 20 nM
B4: Peptide complex Dimer Structure No. 44 (peptide)
peptide: {CH2CO}-WW[Tle]DVKDDLYF[hTyr]DCG-NH2
modifications: thioether N-14; also: homodimer: Lys6 joined to Lys6 of second copy by cPEG17c (Linker Structure No. 4)

pERK Assay Results (AlphaLISA p-Erk1/2, HUVEC) (VEGFR-2 [1]): ≥ 50 % activity at 100 nM
B5: Peptide complex Dimer Structure No. 37 (peptide)
peptide: {CH2CO}-WWVDVKGVNYF[hTyr]DCG-NH2
modifications: thioether N-14; also: homodimer: Lys6 joined to Lys6 of second copy by OCOPEG13OCO (Linker Structure No. 5)

pERK Assay Results (AlphaLISA p-Erk1/2, HUVEC) (VEGFR-2 [1]): ≥ 50 % activity at 20 nM
B6: Peptide complex Dimer Structure No. 56 (peptide)
peptide: {CH2CO}-WW[hTyr]DVKDD[Atb]Y[F4G]VDCG-NH2
modifications: thioether N-14; reading uncertain; also: dimer: Lys6 joined to Lys6 of second copy by OCOPEG13OCO (Linker Structure No. 5)

pERK Assay Results (AlphaLISA p-Erk1/2, HUVEC) (VEGFR-2 [1]): ≥ 50 % activity at 10 nM
B8: Peptide complex Dimer Structure No. 41 (peptide)
peptide: {CH2CO}-WWVDVKDDLY[F4G][hTyr][Hyp]CG-NH2
modifications: thioether N-14; also: homodimer: Lys6 joined to Lys6 of second copy by OCOPEG13OCO (Linker Structure No. 5)

pERK Assay Results (AlphaLISA p-Erk1/2, HUVEC) (VEGFR-2 [1]): ≥ 50 % activity at 10 nM
B12: Peptide complex Dimer Structure No. 40 (peptide)
peptide: {CH2CO}-WW[hTyr]DVKDDLY[F4G]VDCG-NH2
modifications: thioether N-14; also: homodimer: Lys6 joined to Lys6 of second copy by OCOPEG13OCO (Linker Structure No. 5)

pERK Assay Results (AlphaLISA p-Erk1/2, HUVEC) (VEGFR-2 [1]): ≥ 50 % activity at 10 nM
B13: Peptide complex Dimer Structure No. 30 (peptide)
peptide: {CH2CO}-WW[Tle]DVKDDLY[F4C][hTyr]DCG-NH2
modifications: thioether N-14; not fully specified (residue 6); reading uncertain; also: homodimer: Lys6 joined to Lys6 of second copy by cPEG17c (Linker Structure No. 4)

pERK Assay Results (AlphaLISA p-Erk1/2, HUVEC) (VEGFR-2 [1]): ≥ 50 % activity at 20 nM
B17: Peptide complex Dimer Structure No. 48 (peptide)
peptide: {CH2CO}-WW[Tle]DVKDD[Atb]YF[hTyr]DCG-NH2
modifications: thioether N-14; reading uncertain; also: homodimer: Lys6 joined to Lys6 of second copy by cPEG17c (Linker Structure No. 4)

pERK Assay Results (AlphaLISA p-Erk1/2, HUVEC) (VEGFR-2 [1]): ≥ 50 % activity at 100 nM
B20: Peptide complex Dimer Structure No. 39 (peptide)
peptide: {CH2CO}-WWVDVKDDLY[Yph]V[hArg]CG-NH2
modifications: thioether N-14; reading uncertain; also: homodimer: Lys6 joined to Lys6 of second copy by OCOPEG13OCO (Linker Structure No. 5)

pERK Assay Results (AlphaLISA p-Erk1/2, HUVEC) (VEGFR-2 [1]): ≥ 50 % activity at 5 nM
B21: Peptide complex Dimer Structure No. 55 (peptide)
peptide: {CH2CO}-WW[Tle]DVKDD[Atb]Y[F4G][hTyr]DCG-NH2
modifications: thioether N-14; reading uncertain; also: dimer: Lys6 joined to Lys6 of second copy by OCOPEG13OCO (Linker Structure No. 5)

pERK Assay Results (AlphaLISA p-Erk1/2, HUVEC) (VEGFR-2 [1]): ≥ 50 % activity at 100 nM
B22: Peptide complex Dimer Structure No. 36 (peptide)
peptide: {CH2CO}-WW[Tle]DV[Ahp′]DDLYF[hTyr]DCG
modifications: thioether N-14; not fully specified (C-terminus); reading uncertain; also: dimer: Gly15 C-terminus joined to second copy by PEG12c-K-PEG12c (Linker Structure No. 1)

pERK Assay Results (AlphaLISA p-Erk1/2, HUVEC) (VEGFR-2 [1]): ≥ 50 % activity at 10 nM
B24: Peptide complex Dimer Structure No. 34 (peptide)
peptide: {CH2CO}-WW[Tle]DVKDDLYF[hTyr]FCG-NH2
modifications: thioether N-14; also: homodimer: Lys6 joined to Lys6 of second copy by cPEG17c (Linker Structure No. 4)

pERK Assay Results (AlphaLISA p-Erk1/2, HUVEC) (VEGFR-2 [1]): ≥ 50 % activity at 20 nM
B25: Peptide complex Dimer Structure No. 57 (peptide)
peptide: {CH2CO}-WW[hTyr]DVKDD[Atb]Y[F4G][hTyr]DCG-NH2
modifications: thioether N-14; reading uncertain; also: dimer: Lys6 joined to Lys6 of second copy by OCOPEG13OCO (Linker Structure No. 5)

pERK Assay Results (AlphaLISA p-Erk1/2, HUVEC) (VEGFR-2 [1]): ≥ 50 % activity at 10 nM
B26: Peptide complex Dimer Structure No. 32 (peptide)
peptide: {CH2CO}-WW[Tle]DVK(CO(CH2)2(OCH2CH2)17CO)DDLYF[H4Py]DCG-NH2
modifications: thioether N-14; reading uncertain; also: dimer joined at Lys6 side chains by cPEG17c

pERK Assay Results (AlphaLISA p-Erk1/2, HUVEC) (VEGFR-2 [1]): ≥ 50 % activity at 20 nM
B29: Peptide complex Dimer Structure No. 50 (peptide)
peptide: {CH2CO}-WWVDVKDDLYFVDCG-NH2
modifications: thioether N-14; also: homodimer: Lys6 joined to Lys6 of second copy by OCOPEG17OCO (Linker Structure No. 6)
